Where two headings read alike, the source gives them in different places.
Columns and labels:
[1] = biological target: human CD33-his protein (human) (UniProt P20138); assay: competition ELISA, coated human CD33-his, vs Biotin-C33B904 at EC80; antibody 0 nM (no competitor)
[2] = biological target: human CD33-his protein (human) (UniProt P20138); assay: competition ELISA, coated human CD33-his, vs Biotin-C33B904 at EC80; antibody 3.91 nM
[3] = biological target: human CD33-his protein (human) (UniProt P20138); assay: as above; remark: listed apart in the source
[4] = biological target: human CD33-his protein (human) (UniProt P20138); assay: competition ELISA, coated human CD33-his, vs Biotin-C33B904 at EC80; antibody 0.98 nM
[5] = biological target: human CD33-his protein (human) (UniProt P20138); assay: competition ELISA, coated human CD33-his, vs Biotin-C33B904 at EC80; antibody 125.00 nM
[6] = biological target: human CD33-his protein (human) (UniProt P20138); assay: competition ELISA, coated human CD33-his, vs Biotin-C33B904 at EC80; antibody 31.25 nM
[7] = biological target: human CD33-his protein (human) (UniProt P20138); assay: competition ELISA, coated human CD33-his, vs Biotin-C33B904 at EC80; antibody 62.50 nM
[8] = biological target: human CD33-his protein (human) (UniProt P20138); assay: competition ELISA, coated human CD33-his, vs Biotin-C33B904 at EC80; antibody 250.00 nM
[9] = biological target: human CD33-his protein (human) (UniProt P20138); assay: competition ELISA, coated human CD33-his, vs Biotin-C33B904 at EC80; antibody 0.98 nM; remark: listed apart in the source
[10] = biological target: human CD33-his protein (human) (UniProt P20138); assay: competition ELISA, coated human CD33-his, vs Biotin-C33B904 at EC80; antibody 7.81 nM
[11] = biological target: human CD33-his protein (human) (UniProt P20138); assay: competition ELISA, coated human CD33-his, vs Biotin-C33B904 at EC80; antibody 62.50 nM; remark: listed apart in the source
[12] = biological target: human CD33-his protein (human) (UniProt P20138); assay: competition ELISA, coated human CD33-his, vs Biotin-C33B904 at EC80; antibody 15.63 nM
[13] = biological target: human CD33-his protein (human) (UniProt P20138); assay: competition ELISA, coated human CD33-his, vs Biotin-C33B904 at EC80; antibody 1.95 nM
[14] = biological target: human CD33-his protein (human) (UniProt P20138); assay: competition ELISA, coated human CD33-his, vs Biotin-C33B904 at EC80; antibody 250.00 nM; remark: listed apart in the source
[15] = biological target: human CD33-his protein (human) (UniProt P20138); assay: competition ELISA, coated human CD33-his, vs Biotin-C33B904 at EC80; antibody 1.95 nM; remark: listed apart in the source
[16] = biological target: human CD33-his protein (human) (UniProt P20138); assay: competition ELISA, coated human CD33-his, vs Biotin-C33B904 at EC80; antibody 0.49 nM
[17] = biological target: human CD33-his protein (human) (UniProt P20138); assay: competition ELISA, coated human CD33-his, vs Biotin-C33B904 at EC80; antibody 31.25 nM; remark: listed apart in the source
[18] = biological target: human CD33-his protein (human) (UniProt P20138); assay: competition ELISA, coated human CD33-his, vs Biotin-C33B904 at EC80; antibody 0.49 nM; remark: listed apart in the source
[19] = biological target: human CD33-his protein (human) (UniProt P20138); assay: competition ELISA, coated human CD33-his, vs Biotin-C33B904 at EC80; antibody 125.00 nM; remark: listed apart in the source
[20] = biological target: human CD33-his protein (human) (UniProt P20138); assay: competition ELISA, coated human CD33-his, vs Biotin-C33B904 at EC80; antibody 500 nM
[21] = biological target: human CD33-his protein (human) (UniProt P20138); assay: as above; remark: listed apart in the source
[22] = biological target: human CD33-his protein (human) (UniProt P20138); assay: competition ELISA, coated human CD33-his, vs Biotin-C33B904 at EC80; antibody 15.63 nM; remark: listed apart in the source
[23] = biological target: human CD33-his protein (human) (UniProt P20138); assay: competition ELISA, coated human CD33-his, vs Biotin-C33B904 at EC80; antibody 7.81 nM; remark: listed apart in the source
[24] = biological target: human CD33-his protein (human) (UniProt P20138); assay: competition ELISA, coated human CD33-his, vs Biotin-C33B904 at EC80; antibody 0 nM (no competitor); remark: listed apart in the source
[25] = biological target: human CD33 on CHO-K1 cells (CHO-K1-human CD33) (human) (UniProt P20138); assay: FACS, CHO-K1-human CD33 cells
Sequence of human CD33 on CHO-K1 cells (CHO-K1-human CD33) (human) (P20138 18-364): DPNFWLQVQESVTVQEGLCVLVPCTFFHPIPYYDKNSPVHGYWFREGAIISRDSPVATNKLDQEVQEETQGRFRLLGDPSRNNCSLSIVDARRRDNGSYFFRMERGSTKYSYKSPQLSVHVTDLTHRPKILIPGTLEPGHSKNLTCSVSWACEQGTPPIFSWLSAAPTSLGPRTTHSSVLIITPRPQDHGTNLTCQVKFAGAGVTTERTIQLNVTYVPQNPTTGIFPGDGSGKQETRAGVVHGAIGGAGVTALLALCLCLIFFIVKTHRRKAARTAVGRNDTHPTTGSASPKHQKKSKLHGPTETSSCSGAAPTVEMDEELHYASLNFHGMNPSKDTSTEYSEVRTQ

[26] = biological target: human CD33 on CHO-K1 cells (CHO-K1-human CD33) (human) (UniProt P20138); assay: FACS, CHO-K1-human CD33 cells; remark: listed apart in the source
[27] = biological target: human CD33 on U937 cells (endogenous) (human) (UniProt P20138); assay: FACS, U937 cells
Sequence of human CD33 on U937 cells (endogenous) (human) (P20138 18-364): as above

[28] = biological target: human CD33-His (extracellular domain Asp 18-His 259) (human) (UniProt P20138); assay: ELISA, antigen coated
Sequence of human CD33-His (extracellular domain Asp 18-His 259) (human) (P20138 18-259 limits assumed): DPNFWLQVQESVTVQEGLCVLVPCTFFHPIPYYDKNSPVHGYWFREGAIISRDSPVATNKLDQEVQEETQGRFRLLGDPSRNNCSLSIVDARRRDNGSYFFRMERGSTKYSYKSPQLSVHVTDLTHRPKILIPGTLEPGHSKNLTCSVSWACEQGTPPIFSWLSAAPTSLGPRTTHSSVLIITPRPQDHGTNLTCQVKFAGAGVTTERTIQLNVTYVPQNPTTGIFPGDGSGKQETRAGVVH

[29] = biological target: murine CD33-His protein (murine) (UniProt Q63994); assay: ELISA, antigen coated
Sequence of murine CD33-His protein (murine) (Q63994 18-240 limits assumed): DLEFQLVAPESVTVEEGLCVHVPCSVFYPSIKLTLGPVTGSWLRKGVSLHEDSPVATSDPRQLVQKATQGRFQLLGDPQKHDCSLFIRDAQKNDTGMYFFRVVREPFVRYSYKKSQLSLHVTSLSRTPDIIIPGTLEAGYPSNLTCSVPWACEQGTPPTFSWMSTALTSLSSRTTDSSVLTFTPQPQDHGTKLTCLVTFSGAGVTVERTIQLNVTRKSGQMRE

[30] = biological target: human CD33-C2-his (human) (UniProt P20138); assay: ELISA, antigen coated
Sequence of human CD33-C2-his (human) (P20138 other isoform, or with tags, fused parts or gaps limits assumed): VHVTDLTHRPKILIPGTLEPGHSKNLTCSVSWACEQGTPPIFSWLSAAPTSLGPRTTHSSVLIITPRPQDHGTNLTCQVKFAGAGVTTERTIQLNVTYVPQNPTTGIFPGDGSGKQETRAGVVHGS

human CD33-V-his (human) = human CD33-V-his (human) (UniProt P20138); assay: ELISA, antigen coated
Sequence of human CD33-V-his (human) (P20138 other isoform, or with tags, fused parts or gaps limits assumed): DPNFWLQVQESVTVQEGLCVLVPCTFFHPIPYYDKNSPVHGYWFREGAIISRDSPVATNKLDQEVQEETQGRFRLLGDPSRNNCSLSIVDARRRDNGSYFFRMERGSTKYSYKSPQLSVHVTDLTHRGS

[31] = biological target: human CD33-His (extracellular domain Asp 18-His 259) (human) (UniProt P20138); assay: ELISA, antigen coated; remark: listed apart in the source
[32] = biological target: human CD33-His (extracellular domain Asp 18-His 259) (human) (UniProt P20138); assay: ELISA, antigen coated; remark: listed apart in the source
[33] = biological target: human CD33 on U937 cells (endogenous) (human) (UniProt P20138); assay: FACS, U937 cells; remark: listed apart in the source

Sequence of human CD33-his protein (human) (P20138 18-259 limits assumed): as the sequence (P20138 18-259 limits assumed) above

hIgG1 (anti-hel-hIgG1 antibody against hen egg lysozyme)
OD450 (Biotin-C33B904 signal) [1]: 2.26
OD450 (Biotin-C33B904 signal) [2]: 2.3
OD450 (Biotin-C33B904 signal) [3]: 2.19
OD450 (Biotin-C33B904 signal) [4]: 2.27
OD450 (Biotin-C33B904 signal) [5]: 2.17
OD450 (Biotin-C33B904 signal) [6]: 2.38
OD450 (Biotin-C33B904 signal) [7]: 2.17
OD450 (Biotin-C33B904 signal) [8]: 2.35
OD450 (Biotin-C33B904 signal) [9]: 2.08
OD450 (Biotin-C33B904 signal) [10]: 2.33
OD450 (Biotin-C33B904 signal) [11]: 2.35
OD450 (Biotin-C33B904 signal) [12]: 2.3
OD450 (Biotin-C33B904 signal) [13]: 2.3
OD450 (Biotin-C33B904 signal) [14]: 2.16
OD450 (Biotin-C33B904 signal) [15]: 2.21
OD450 (Biotin-C33B904 signal) [16]: 2.13
OD450 (Biotin-C33B904 signal) [17]: 2.21
OD450 (Biotin-C33B904 signal) [18]: 2.22
OD450 (Biotin-C33B904 signal) [19]: 2.34
OD450 (Biotin-C33B904 signal) [20]: 2.34
OD450 (Biotin-C33B904 signal) [21]: 2.46
OD450 (Biotin-C33B904 signal) [22]: 2.35
OD450 (Biotin-C33B904 signal) [23]: 2.17
OD450 (Biotin-C33B904 signal) [24]: 2.24

anti-hel-hIgG1 antibody against hen egg lysozyme
Max MFI [25]: 389 MFI
Max MFI [26]: 140 MFI
Max MFI [27]: 162 MFI
OD450 at 0.0001 nM [28]: 0.05 OD450
OD450 at 0.001 nM [28]: 0.06 OD450
OD450 at 0.01 nM [28]: 0.06 OD450
OD450 at 0.1 nM [28]: 0.05 OD450
OD450 at 1 nM [28]: 0.05 OD450
OD450 at 10 nM [28]: 0.05 OD450
OD450 at 100 nM [28]: 0.05 OD450
OD450 at 0.0001 nM [29]: 0.05 OD450
OD450 at 0.001 nM [29]: 0.06 OD450
OD450 at 0.01 nM [29]: 0.06 OD450
OD450 at 0.1 nM [29]: 0.06 OD450
OD450 at 1 nM [29]: 0.06 OD450
OD450 at 10 nM [29]: 0.06 OD450
OD450 at 100 nM [29]: 0.06 OD450
OD450 at 0.0001 nM [30]: 0.26 OD450
OD450 at 0.001 nM [30]: 0.25 OD450
OD450 at 0.01 nM [30]: 0.24 OD450
OD450 at 0.1 nM [30]: 0.27 OD450
OD450 at 1 nM [30]: 0.23 OD450
OD450 at 10 nM [30]: 0.24 OD450
OD450 at 100 nM [30]: 0.3 OD450
OD450 at 0.0001 nM (human CD33-V-his (human)): 0.23 OD450
OD450 at 0.001 nM (human CD33-V-his (human)): 0.33 OD450
OD450 at 0.01 nM (human CD33-V-his (human)): 0.2 OD450
OD450 at 0.1 nM (human CD33-V-his (human)): 0.23 OD450
OD450 at 1 nM (human CD33-V-his (human)): 0.22 OD450
OD450 at 10 nM (human CD33-V-his (human)): 0.22 OD450
OD450 at 100 nM (human CD33-V-his (human)): 0.31 OD450
OD450 at 0.0001 nM [31]: 0.06 OD450
OD450 at 0.01 nM [31]: 0.05 OD450
OD450 at 0.1 nM [31]: 0.06 OD450
OD450 at 1 nM [31]: 0.06 OD450
OD450 at 10 nM [31]: 0.08 OD450
OD450 at 100 nM [31]: 0.1 OD450
OD450 at 0.0001 nM [32]: 0.04 OD450
OD450 at 0.001 nM [32]: 0.04 OD450
OD450 at 0.01 nM [32]: 0.04 OD450
OD450 at 0.1 nM [32]: 0.03 OD450
OD450 at 1 nM [32]: 0.03 OD450
OD450 at 10 nM [32]: 0.04 OD450
OD450 at 100 nM [32]: 0.06 OD450
Max MFI [33]: 84 MFI

— patent US20240124575A1
